Reference: patent US20240425607A1, “IL-18BP ANTAGONIST ANTIBODIES AND THEIR USE IN MONOTHERAPY AND COMBINATION THERAPY IN THE TREATMENT OF CANCER” (Compugen Ltd., priority 2023, published 2024)

Columns and labels:
[1] = Fab Tm by dynamic scanning fluorimetry (DSF); assay type: physicochemical; details: optimized antibodies
Procedure: 10 μL of 20× Sypro Orange is added to 20 μL of 0.2-1 mg/mL mAb or Fab solution. A RT-PCR instrument (BioRad CFX96 RT PCR) is used to ramp the sample plate temperature from 40 to 95° C. at 0.5° C. increment, with 2 min equilibrate at each temperature. The negative of first derivative for the raw data is used to extract Tm.

SEC-HPLC % monomer = assay type: physicochemical; details: optimized antibodies
Procedure: A TSKgel SuperSW mAb HTP column (22855) was used for fast SEC analysis of mammalian produced mAbs at 0.4 mL/min with a cycle time of 6 min/run. 200 mM Sodium Phosphate and 250 mM Sodium Chloride was used as the mobile phase.

[2] = target: T1, human IL18BP-Fc binding to human IL-18 (Homo sapiens, UniProt O95998); experiment: Blocking of hIL18BP-hIL-18 interaction by ELISA, IL18BP plate bound; details: 1 ng/ml human IL-18, compared with clone W19089C
T1 sequence (O95998 31-194): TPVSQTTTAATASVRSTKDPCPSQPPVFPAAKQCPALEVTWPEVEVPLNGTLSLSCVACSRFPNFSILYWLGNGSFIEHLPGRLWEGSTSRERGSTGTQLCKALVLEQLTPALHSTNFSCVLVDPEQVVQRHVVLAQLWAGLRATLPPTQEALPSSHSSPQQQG
Procedure: This assay was utilized to identify anti-human IL18BP Abs that inhibit the binding interaction between human IL18BP- and its counterpart, human IL-18. […] Human IL18BP-Fc protein was coated on the wells of a high binding plate overnight at 4° C. (1 μg/ml, 100 μl/well volume). Plates were washed three times with PBS-T buffer (1×PBS pH 7.4, 0.05% Tween20) incubated with 250 μL blocking buffer (2.5% skim milk in PBS) at room temperature (RT) for 2 hr. Blocking buffer was removed and plates were washed three times with PBS-T buffer. Plate-bound ligands were incubated with anti-human IL18BP Abs in 1% BSA in PBS buffer two times serially diluted (2.5-0.019 μg/ml, 100 μL/well volume) at RT for 1 h. Plates were washed one time with PBS. Plate-bound ligands were incubated with human IL-18 (cat. 9124-IL, R&D) in 1% BSA in PBS buffer (1 ng/ml, 100 μL/well volume) at RT for 1 h. Plates were washed three times with PBS-T (0.05% Tween20 in PBS). Biotinylated anti-IL18 detection antibody, cat. D045-6, R&D 1:1000 in 1% BSA in PBS buffer was added (100 μL/well). This was incubated at RT for 1 hr, and plates were washed again. Peroxidase Streptavidin, Jackson, cat. 016-030-084 1:1000 in 2.5% skim milk in PBS was added (100 μL/well) for 1 hr at RT. […] The HRP reaction was stopped by adding 50 μL 1N HCl and absorbance signals at 450 nm were read on a luminescence Reader-EnSpire (Perkin Elmar). […]

[3] = target: T2, recombinant human IL18-BP (Homo sapiens, UniProt O95998); experiment: MEL624:TIL assay; assay type: cell-based; details: rhIL-18 30 ng/ml + rhIL-18BP 1 μg/ml, vs isotype control
T2 construct: purchased R&D systems 119-BP
T2 sequence (O95998 31-194): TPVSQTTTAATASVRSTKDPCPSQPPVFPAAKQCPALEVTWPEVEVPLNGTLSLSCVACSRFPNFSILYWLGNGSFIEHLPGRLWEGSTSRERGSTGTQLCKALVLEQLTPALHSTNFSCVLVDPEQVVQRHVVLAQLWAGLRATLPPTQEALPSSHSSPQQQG
Procedure: Human MEL624 cells were thawed and grown in DMEM with 10% FBS, 1% Glutamax, 1% Penicillin-Streptomycin Solution and 1% HEPES buffer. The cells were then seeded at 75 k cells/well in a 96 well plate in the assay medium (IMDM with 10% human serum, 1% Glutamax, 1% MEM eagle, 1% Sodium Pyruvate and 1% Penicillin-Streptomycin Solution) and incubated 1 hour in 37° C., 5% CO2 incubator before co-culture with human tumor infiltrating lymphocytes that were previously expanded using known melanoma antigens (TILs). Human TILs were thawed in full TIL media and 75 k cells/well were co-cultured with the MEL624 cells to create an effector: target ratio of 1:1. The co-cultured cells were then treated with rhIL-18 (30 ng/ml) and rhIL-18BP (1 μg/ml) for 30 min in 37° C., 5% CO2 incubator to allow IL-18:IL-18BP complex formation. After 30 minutes, anti-human IL-18BP mAb (ADI-71722, dose titration, 30 μg/ml-0.01 μg/ml, dilution factor of 1:3) or relevant isotype control (hIgG1 30 μg/ml) were added to the co-culture to examine its capability to restore IL-18 activity. Cells and all added solutions were prepared in full assay medium to a final volume of 200 μl/well. Plates were incubated for 24 hours in 37° C., 5% CO2 incubator, after which the supernatant was collected for cytokine secretion evaluation. All tests were done in triplicates and each repeated with TIL four donors. […]

[4] = target: T2, recombinant human IL18-BP; experiment: CMV recall assay; assay type: cell-based
Procedure: Human MEL-624 overexpressing PD-L1 cells were thawed and loaded with CMV pp65 peptide (0.03 μg/ml). The cells were seeded at 100K/well in a 96 well plate and incubated for 30 minutes in 37° C., 5% C02 incubator with a combination rhIL-18 (30 ng/ml, R&D systems, 9124-IL/CF) and rhIL-18BP-Fc chimeric protein (2 μg/ml, R&D systems 119-BP) to allow IL-18+IL-18BP complex formation. After 30 minutes, anti-human IL-18BP (ADI-71722), anti-human PVRIG, anti-human TIGIT (anti-TIGIT), anti-human PD1 (Pembrolizumab) or relevant isotype control (hIgG4) were added to the culture to examine their capability to restore IL-18 activity. All antibodies were added to a final concentration of 10 μg/ml. 30 minutes post incubation with antibodies, thawed CMV-reactive T-cells were added to the culture. Cells and all added solutions were prepared in full IMDM (IMDM media with 10% human serum, 1% Glutamax, 1% MEM eagle, 1% sodium pyruvate, and 1% Penicillin-Streptomycin Solution) to a final volume of 200 μl/well. Plates were incubated for 24 hours in 37° C., 5% C02 incubator, after which the supernatant was collected for IFNγ secretion evaluation. All tests were done in triplicates and each repeated with three donors.
MEL624 cells that overexpress PD-L1 were loaded with CMV peptide pp65. […] CMV-specific T-cells were then added to the culture and IFNg secretion was measured after an overnight incubation.

[5] = target: T3, human IL-18-BP : human IL-18 complex (Homo sapiens, UniProt O95998); experiment: Competition ELISA with complex of soluble IL18-IL18BP; assay type: binding; details: ADI-66716 vs MAB1191
T3 construct: purchased R&D systems 119-BP
T3 sequence (O95998 31-194): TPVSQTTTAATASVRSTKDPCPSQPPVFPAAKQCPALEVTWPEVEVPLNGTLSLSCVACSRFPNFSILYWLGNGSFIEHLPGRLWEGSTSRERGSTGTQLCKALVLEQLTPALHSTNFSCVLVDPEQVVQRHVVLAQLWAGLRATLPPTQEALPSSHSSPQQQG
Procedure: This assay was utilized to identify anti-human IL18BP Abs that inhibit the binding interaction between human IL18BP- and its counterpart, human IL-18. Commercial Ab anti human IL18BP (Clone 136007, cat. MAB1191, R&D systems) and ADI-66716 were tested for inhibition of human IL18BP protein binding to IL-18 by ELISA. Human IL18BP antibody (cat.AF 119, R&D) was coated on the wells of a high binding plate overnight at 4° C. (1 ug/ml, 100 μl/well volume). Plates were washed three times with PBS-T buffer (1×PBS pH 7.4, 0.05% Tween20) incubated with 250 μL blocking buffer (2.5% skim milk in PBS) at room temperature (RT) for 2 hr. Blocking buffer was removed and plates were washed three times with PBS-T buffer. Complex pre-formed 1 hour at 37° C. with 0.25 nM human IL-18-BP (R&D, cat. 119BP) and 3 nM Human IL-18 Biotin (9124-IL, R&D) in 1% BSA in PBS buffer. Complex was incubated for 2 hrs at RT together with anti-human IL18BP Abs (in 1% BSA in PBS buffer two times serially diluted. 4-0.06 μg/ml, 100 μL/well volume). Peroxidase Streptavidin, Jackson, cat. 016-030-084 1:1000 in 2.5% skim milk in PBS was added (100 μL/well) for 1 hr at RT. Plates were washed three times with PBS-T buffer (1×PBS pH 7.4, 0.05% Tween20). […] The HRP reaction was stopped by adding 50 μL 1N HCl and absorbance signals at 450 nm were read on a luminescence Reader-EnSpire (Perkin Elmar). […]

whole blood = experiment: Whole blood loop assay (ID.Flow); assay type: cell-based, human; details: blood of six healthy volunteers, 24 hr
Procedure: Flow, an ex vivo system that mimics the human blood circulation. Fresh whole blood was taken from six healthy volunteers and immediately transferred to a whole blood loop system. The test items were administered, and the blood was set to circulate at 37° C. to prevent clotting. Blood samples collected at the 24 hr time point were analyzed for hematology and flow cytometry parameters and then processed to plasma for cytokine analysis. The anti-CD52 antibody Alemtuzumab was included as a reference antibody with manageable cytokine release in the clinic.

[6] = test system: B16/Db-hmgp100 melanoma model; experiment: B16/Db-hmgp100 syngeneic tumor model; details: 10 mg/kg from day 4
Procedure: B16/Db-hmgp100 cells were kindly provided by Dr. Hanada et al. (HHS agency) and were licensed from NIH. B16/Db-hmgp100 cells were generated by double transduction of B16F10 with H-2Db and a retrovirus that encodes chimeric mouse gp100 that is comprised of the human gp10025-33 and the rest of mouse gp100. Cells were cultured in RPMI 1640 (Biological Industries, 01-100-1A) with 10% FBS (Biological Industries, 04-127-1A), and 100 g/mL penicillin/streptomycin (Biological Industries, 03-031-1B), 1% Glutamax (Life technologies, 35050-038), 1% Sodium pyruvate (Biological Industries, 03-042-1B), 0.01% 2-mercaptoethanol (Life technologies, 31350-010), 10 μg/ml Blasticidin (InvivoGen, ant-bl-05). 1×10^5 B16/Db-hmgp100 cells subcutaneously into the back right flank of mice.
In both CT26 and B16/Db-hmgp100 models mAb administration started at day 4 (mono treatment) or day 7 post tumor inoculation when tumors were at volume of 30-50 mm^3 (combo treatment); and was given intra-peritoneal (i.p.) in a final volume/injection of 200 μl, for 3 wks for a total of 6 administrations. Tumor growth was measured with electronic caliper every 2-3 days and was reported as 0.5×W^2×L mm^3. […]
At day 4 post tumor inoculation mice were treated with mAbs (as detailed below) injected on day 4, 7, 11, 14, 18 and 21 post inoculation. Tumor growth was measured with caliper every 2-3 days. […]

B1: ADI-71722: anti-IL18-BP antibody, sequences in FIG. 2D; 66670 lineage (antibody, V domains shown)
VH: QVQLVQSGAEVKKPGSSVKVSCKASGGTFSEYPISWVRQAPGQGLEWMGGIIPGAGTAIYAQKFQGRVTITADESTSTAYMELSSLRSEDTAVYYCARGRHFHETWGQGTLVTVSS
VL: DIQMTQSPSSVSASVGDRVTITCRASQGISSWLAWYQQKPGKAPKLLIYAASSLQSGVPSRFSGSGSGTDFTLTISSLQPEDFATYYCQQVYRFPWTFGGGTKVEIK
Fab Tm (DSF, ° C.) [1]: 73.0 °C
SEC-HPLC, % monomer (SEC-HPLC % monomer): 95.9%
Blocking effect on binding of human IL18BP to human IL-18 [2]: superior to Biolegend Ab
IFNγ secretion from TILs [3]: fully restore IL-18 activity
IFNγ secretion by CMV-reactive T-cells, as mono ([4]; 10 μg/ml, rhIL-18 30 ng/ml + rhIL-18BP 2 μg/ml): fully restore IFNγ secretion
IFNγ secretion by CMV-reactive T-cells, in combination ([4]; combined with Pembrolizumab, anti-PVRIG or anti-TIGIT, each 10 μg/ml, vs mono): in a more potent manner

B2: ADI-66716: anti-IL18-BP antibody, sequences in FIG. 2N; parental (antibody, V domains shown)
VH: QLQLQESGPGLVKPSETLSLTCTVSGGSISSSDYYWGWIRQPPGKGLEWIGSIYYSGSTYYNPSLKSRVTISVDTSKNQFSLKLSSVTAADTAVYYCARGPHRQVFDYWGQGTLVTVSS
VL: DIQMTQSPSSVSASVGDRVTITCRASQGISSWLAWYQQKPGKAPKLLIYAASSLQSGVPSRFSGSGSGTDFTLTISSLQPEDFATYYCQQGSSFPYTFGGGTKVEIK
Blocking of IL18-IL18BP complex formation [5]: superior blocking effect to R&D antibody

B3: ADI-71709: anti-IL18-BP antibody, sequences in FIG. 2A; 66650 lineage (antibody, V domains shown)
VH: QVQLVQSGAEVKKPGASVKVSCEASGYTFDIYAVHWVRQAPGQRLEWMGWIHAGTGATKYSQKFQGRVTITRDTSASTAYMELSSLRSEDTAVYYCARGLGEVGPTGTSWFDPWGQGTLVTVSS
VL: DIQMTQSPSTLSASVGDRVTITCRASQSISSWLAWYQQKPGKAPKLLIYEASSLESGVPLRFSGSGSGTEFTLTISSLQPDDFATYYCQQYRQSPFTFGGGTKVEIK
Fab Tm (DSF, ° C.) [1]: 71.5 °C
SEC-HPLC, % monomer (SEC-HPLC % monomer): 97.6%
Signs of systemic immune activation, in combination with Nivolumab (whole blood): did not show signs of systemic immune activation
Signs of systemic immune activation, as mono (whole blood; hematology, flow cytometry, cytokines): did not show signs of systemic immune activation

B4: anti-PVRIG: Anti PVRIG mAb 407 mAb mouse IgG1, BOJ-5G4-F4 (antibody, V domains shown)
VH: QVQLQQSGAELAKPGSSVMISCKASGYTFTNYAVHWIKQTTGQALEWTGYIAPGSGVTKYNEKFKGKATLTVDKSSTTAYMQLSSLTPVDTAVYYCASGTTRFAYWGQGTLVTVSS
VL: DIVLTQSPALAVSLGQRATISCRASQSVSLSSYNLMQWYQQKPGQEPKILIYDASNLPSGIPARFSGSGSGTDFTLTIDPVQADDIATYYCQQSKDDPLTFGSGTKLEIK
Tumor growth, anti-PVRIG monotherapy [6]: comparable tumor growth to mice treated with isotype control mAbs
